# Values of other authors in paper PMC2721158.
# How the values were obtained:
# [1] = molecular target: cyclic HPQ peptide … (synthetic construct)
# [2] = molecular target: linear peptide HDHPQNL (synthetic construct); test: titration calorimetry
# [3] = molecular target: linear HPQ peptide FSHPQNT (synthetic construct); test: titration calorimetry
# Sequence of streptavidin (P22629 25-183): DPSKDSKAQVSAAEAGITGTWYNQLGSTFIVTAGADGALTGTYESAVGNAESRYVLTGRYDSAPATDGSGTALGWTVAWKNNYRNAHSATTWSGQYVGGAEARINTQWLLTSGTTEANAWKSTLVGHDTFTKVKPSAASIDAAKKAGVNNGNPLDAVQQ
substance,measurement,setting,value
streptavidin (from UniProt P22629),Kd,[1],0.23 µM
same,Kd,[2],282 µM
same,Kd,[3],126 µM
